Molecular target: PME-1 (UniProt Q9Y570)
Assay: FLAG-PP2Ac immunoprecipitation, PME-1 blot
Details: reference: wild type

| binding against the reference (sites S225,T227) | binding against the reference (sites S285) | Substance |
| --- | --- | --- |
| weaker | – | PP2Ac (from UniProt P67775) S225A/T227A |
| – | weaker | PP2Ac (from UniProt P67775) S285A |
